Results published in PMC7921117, “Structural characterization of the microbial enzyme urocanate reductase mediating imidazole propionate production” (Nature Communications, 2021).

Biological target: the molecule itself
Assay: elution peak in chromatography during purification; purification of His-tagged UrdA′; the sentence follows the HisTrap HP imidazole gradient; one large asymmetrical peak

B1: two-domain urocanate reductase UrdA′ (clamp domain and FAD-binding domain) from Shewanella oneidensis MR-1 (domain or fragment, Shewanella oneidensis (strain MR-1), UniProt Q8CVD0 130-582, looked up)
chain: EYTYDVVIIGSGGAGFSAGLEAIAAGRSAVIIEKMPIIGGNSLISGAEMNVAGSWVQKNMGITDSKELFISDTLKGGDFKGDPEMVKTMVDNAVGAAEWLRDYVKVEFYPDQLFQFGGHSVKRALIPKGHTGAEVISKFSIKADEVGLPIHTNTKAEKLIQDQTGRIVGVEAAHNGKTITYHAKRGVVIATGGFSSNMEMRKKYNPELDERYGSTGHAGGTGDGIVMAEKIHAAAKNMGYIQSYPICSPTSGAIALIADSRFFGAVLINQKGERFVEELERRDVISHAILAQPGRYTYVLWNQDIENVAHTVEMHQGELKEFTKDGLMYKVDTLEEAAKVFNIPEDKLLSTIKDVNHYAATGKDEAFNHRSGLVDLSKGPYWILKATPSVHHTMGGLVVDTRTRVLDEQGKVIPGLFAAGEVTGLTHGTNRLGGNAYTDIIVYGRIAGQEAAK
notes: Synthetic gene in pET-24a(+); The main peak fraction, mostly monomeric, was used for further experiments; also called UrdA′wt; Two-domain WT; source: E. coli TUNER (DE3), purified (HisTrap HP; size-exclusion chromatography before crystallization); not shown: 6xHis, C-terminal, kept
- binding result: binds
